Data published in publication PMC11417369, “DNA sequence and chromatin differentiate sequence-specific transcription factor binding in the human malaria parasite Plasmodium falciparum”.
Positions count from the first letter of the chain named.

T1: AP2-LT D1 (Plasmodium falciparum, UniProt Q8IAM1 2520-2577)
T1 sequence: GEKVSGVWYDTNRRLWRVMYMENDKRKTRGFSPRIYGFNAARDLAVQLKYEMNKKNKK

B1: CACACA_site7866 (dsDNA)
DNA 1: GGATATAACAGACACACACACACATATAAATATATT
DNA 2: AATATATTTATATGTGTGTGTGTGTCTGTTATATCC
B2: CACACA_site3654 (dsDNA)
DNA 1: AAAAAACAAAAACACACACACACATATATATATATA
DNA 2: TATATATATATATGTGTGTGTGTGTTTTTGTTTTTT
B3: CACACA_site8452 (dsDNA)
DNA 1: B2 DNA 1 with C7A, C15T
DNA 2: B2 DNA 2 with G22A, G30T
B4: CACACA_site9255 (dsDNA)
DNA 1: AAAGAAGGTAAACACACACACACACCGACAAAAAAA
DNA 2: TTTTTTTGTCGGTGTGTGTGTGTGTTTACCTTCTTT
B5: CACACA_site8248 (dsDNA)
DNA 1: TGAACTCACGAGCACACACACACATATATATATATA
DNA 2: TATATATATATATGTGTGTGTGTGCTCGTGAGTTCA
B6: CACACA_site1992 (dsDNA)
DNA 1: TGGGTAAACAAACACACACACATATATATATATATA
DNA 2: TATATATATATATATGTGTGTGTGTTTGTTTACCCA
B7: CACACA_site706 (dsDNA)
DNA 1: AAAAAAAAAAAACACACACACACAAATACATACACA
DNA 2: TGTGTATGTATTTGTGTGTGTGTGTTTTTTTTTTTT
B8: CACACA_site4352 (dsDNA)
DNA 1: CCCACAGACGGACACACACACACATATATATATATA
DNA 2: TATATATATATATGTGTGTGTGTGTCCGTCTGTGGG
B9: CACACA_site493 (dsDNA)
DNA 1: AACATACAGAAACACACACACACACCCACACCCACA
DNA 2: TGTGGGTGTGGGTGTGTGTGTGTGTTTCTGTATGTT
B10: CACACA_site8097 (dsDNA)
DNA 1: CATACACCCCAACACACACACACACCCATATATAAT
DNA 2: ATTATATATGGGTGTGTGTGTGTGTTGGGGTGTATG
B11: CACACA_site1020 (dsDNA)
DNA 1: AACAGACGAAGACACACACACATATATATATATATA
DNA 2: TATATATATATATATGTGTGTGTGTCTTCGTCTGTT
B12: CACACA_site8001 (dsDNA)
DNA 1: TGGGAGCACAGACACACACACACACCGATATATATA
DNA 2: TATATATATCGGTGTGTGTGTGTGTCTGTGCTCCCA
B13: CACACA_site5873 (dsDNA)
DNA 1: AATAACCACGGACACACACACATATATATATATATA
DNA 2: TATATATATATATATGTGTGTGTGTCCGTGGTTATT
B14: CACACA_site5809 (dsDNA)
DNA 1: B13 DNA 1 with T3C, A5C, C9T
DNA 2: B13 DNA 2 with G28A, T32G, A34G
B15: CACACA_site4493 (dsDNA)
DNA 1: GGCATACACGGACACACACACACACCGACATATATA
DNA 2: TATATATGTCGGTGTGTGTGTGTGTCCGTGTATGCC
B16: CACACA_site5031 (dsDNA)
DNA 1: AGTATACTCGGACACACACACACATATATATATATA
DNA 2: TATATATATATATGTGTGTGTGTGTCCGAGTATACT
B17: CACACA_site4674 (dsDNA)
DNA 1: CATATAAAAGGACACACACACACATATATATATATA
DNA 2: TATATATATATATGTGTGTGTGTGTCCTTTTATATG
B18: CACACA_site4437 (dsDNA)
DNA 1: B13 DNA 1 with A1C, A5T, C6A, G11A
DNA 2: B13 DNA 2 with C26T, G31T, T32A, T36G
B19: CACACA_site517 (dsDNA)
DNA 1: AATTAACAAAAACACACACACACACCCACAAAAAAA
DNA 2: TTTTTTTGTGGGTGTGTGTGTGTGTTTTTGTTAATT
B20: CACACA_site268 (dsDNA)
DNA 1: AATATAAACCCAAACACACACATATATATATATATA
DNA 2: TATATATATATATATGTGTGTGTTTGGGTTTATATT
B21: CACACA_site481 (dsDNA)
DNA 1: ATAATCCTGAAACACACACACACACCCATAAATAAA
DNA 2: TTTATTTATGGGTGTGTGTGTGTGTTTCAGGATTAT
B22: CACACA_site453 (dsDNA)
DNA 1: CAAAGACACAAACACACACACACATACATACATACA
DNA 2: TGTATGTATGTATGTGTGTGTGTGTTTGTGTCTTTG
B23: CACACA_site2666 (dsDNA)
DNA 1: B22 DNA 1 with C1A, G5A, A11G, C23T
DNA 2: B22 DNA 2 with G14A, T26C, C32T, G36T
B24: CACACA_site4354 (dsDNA)
DNA 1: CACAGACACGGACACACACACACACCCATATATATA
DNA 2: TATATATATGGGTGTGTGTGTGTGTCCGTGTCTGTG
B25: CACACA_site3589 (dsDNA)
DNA 1: AATAAAAAGAAACACACACACACACCCATATATATA
DNA 2: TATATATATGGGTGTGTGTGTGTGTTTCTTTTTATT
B26: CACACA_site2267 (dsDNA)
DNA 1: B25 DNA 1 with A5T, G9T, C13A
DNA 2: B25 DNA 2 with G24T, C28A, T32A
B27: CACACA_site6473 (dsDNA)
DNA 1: AAAAAAAAAAGACACACACACACACTAATACATACA
DNA 2: TGTATGTATTAGTGTGTGTGTGTGTCTTTTTTTTTT
B28: CACACA_site6255 (dsDNA)
DNA 1: TTTATTAATAGACACACACACACACGCAAAATAAAA
DNA 2: TTTTATTTTGCGTGTGTGTGTGTGTCTATTAATAAA
B29: CACACA_site499 (dsDNA)
DNA 1: CACCCACCCAGACACACACACACAAAAAAAAAAAGA
DNA 2: TCTTTTTTTTTTTGTGTGTGTGTGTCTGGGTGGGTG
B30: CACACA_site2920 (dsDNA)
DNA 1: CATACATACAGACACACACACATATATATATATATA
DNA 2: TATATATATATATATGTGTGTGTGTCTGTATGTATG
B31: CACACA_site773 (dsDNA)
DNA 1: B30 DNA 1 with C1T, C5T, C9G, G11A
DNA 2: B30 DNA 2 with C26T, G28C, G32A, G36A
B32: CACACA_site7106 (dsDNA)
DNA 1: AAAAAACACGCGCACACACACACACGCGCCCACATA
DNA 2: TATGTGGGCGCGTGTGTGTGTGTGCGCGTGTTTTTT

Molecular target: T1, AP2-LT D1
Experiment: gcPBM; about 25 ug protein; PBS, 1% milk, 0.2 mg/ml BSA, salmon testes DNA, 0.03% Triton X-100
Conditions: tags: N-terminal GST (pGEX-4T-1), kept; label: surface-attached array probe

Compared with B1, B2 is higher in binding signal: 10.4 ln median PBM intensity, better of two orientations for the first, 10.7 ln median PBM intensity, better of two orientations for the second.

Going from B3 to B4, the binding signal rises from 10.3 ln median PBM intensity, better of two orientations to 10.6 ln median PBM intensity, better of two orientations.

B5 and B6 are the same in binding signal: 10.5 ln median PBM intensity, better of two orientations for the first, 10.5 ln median PBM intensity, better of two orientations for the second.

Compared with B7, B8 is higher in binding signal: 10.4 ln median PBM intensity, better of two orientations for the first, 10.6 ln median PBM intensity, better of two orientations for the second.

B9 and B10 are the same in binding signal: 10.6 ln median PBM intensity, better of two orientations for the first, 10.6 ln median PBM intensity, better of two orientations for the second.

First: B11
Second: B12
The binding signal of the first is lower: 10.4 ln median PBM intensity, better of two orientations for the first, 10.6 ln median PBM intensity, better of two orientations for the second.

B13 and B14 are the same in binding signal: 10.5 ln median PBM intensity, better of two orientations for the first, 10.5 ln median PBM intensity, better of two orientations for the second.

B15 and B16 are the same in binding signal: 10.6 ln median PBM intensity, better of two orientations for the first, 10.6 ln median PBM intensity, better of two orientations for the second.

Going from B17 to B18, the binding signal falls from 10.6 ln median PBM intensity, better of two orientations to 10.4 ln median PBM intensity, better of two orientations.

B19 and B20 are the same in binding signal: 10.3 ln median PBM intensity, better of two orientations for the first, 10.3 ln median PBM intensity, better of two orientations for the second.

Compared with B21, B22 is higher in binding signal: 10.4 ln median PBM intensity, better of two orientations for the first, 10.6 ln median PBM intensity, better of two orientations for the second.

First: B23
Second: B24
The binding signal of the first is higher: 10.6 ln median PBM intensity, better of two orientations for the first, 10.3 ln median PBM intensity, better of two orientations for the second.

Compared with B25, B26 is lower in binding signal: 10.7 ln median PBM intensity, better of two orientations for the first, 10.6 ln median PBM intensity, better of two orientations for the second.

Going from B27 to B28, the binding signal falls from 10.6 ln median PBM intensity, better of two orientations to 10.4 ln median PBM intensity, better of two orientations.

First: B29
Second: B30
The binding signal of the first is higher: 10.6 ln median PBM intensity, better of two orientations for the first, 10.4 ln median PBM intensity, better of two orientations for the second.

First: B31
Second: B32
The binding signal of the first is lower: 10.3 ln median PBM intensity, better of two orientations for the first, 10.5 ln median PBM intensity, better of two orientations for the second.
